Reference: doi:10.1101/2023.09.21.558797, “Dynamin 1xA interacts with Endophilin A1 via its spliced long C-terminus for ultrafast endocytosis” (bioRxiv, 2023)
Each block holds one binder with its values, some of them ahead of it. No end group written: not given here.

B5: Endophilin A1 SH3 domain (GST tag removed) (domain or fragment)
chain: not shown
notes: Endophilin A1, mouse, SH3 domain, amino acids 292-352 by the methods (the results say residues D291-H352); plasmid from Peter McPherson (McGill University); unlabelled in the titrations; also called endophilin SH3; Endophilin A SH3; source: E. coli JM109, GST tag proteolytically cleaved, purified by gel filtration
B6: His-tagged mouse Endophilin A1 SH3 domain (domain or fragment)
chain: not shown
notes: Endophilin A1, mouse, SH3 domain; the methods describe only a GST-Endophilin A1-SH3 construct (mouse, 292-352); no His-tagged construct is described there; also called His-tagged mouse Endophilin-SH3 domain

Tests used:
Settings in all cases: both partners purified
[1] = target: B6; assay: ELISA; His-tagged mouse Endophilin A1 SH3 domain coated on a 96-well plate, overlaid with increasing concentrations of GST-tagged Dyn1-PRR peptides; two experiments of four replicates
[2] = target: B5; assay: NMR titration; 1H-15N HSQC chemical shift perturbation; unlabelled Endophilin A1 SH3 titrated into 15N-labelled Dyn1 peptide; 298 K, 600 MHz
[3] = target: T1, Dyn1xA-PRR 746-864 (GST tag removed) (rat, UniProt P21575 746-864, 15N-labelled (or 15N, 13C labelled) for NMR); assay: SEC-MALS; Superdex 75 10/300 GL, 20 mM HEPES, 100 mM NaCl, 1 mM DTT, 1 mM PMSF, pH 7.2; complex at 0.5 mg and diluted to one third (0.167 mg)
T1 construct: the SEC-MALS mass (19.2 kDa for the 1:1 complex) fits the cleaved forms; also called PRD; source: E. coli JM109, GST tag proteolytically cleaved, purified by gel filtration
T1 sequence (looked up): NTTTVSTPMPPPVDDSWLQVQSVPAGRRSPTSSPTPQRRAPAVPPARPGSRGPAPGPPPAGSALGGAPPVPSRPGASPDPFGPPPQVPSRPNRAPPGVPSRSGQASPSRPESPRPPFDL

[4] = target: T2, GST-Dyn1xA-PRR (full-length proline-rich region of Dynamin 1 splice variant xA, 746-864) (rat, UniProt P21575 746-864); assay: ELISA; His-tagged mouse Endophilin A1 SH3 domain coated on a 96-well plate, overlaid with increasing concentrations of GST-tagged Dyn1-PRR peptides; two experiments of four replicates
T2 construct: cloned in pGEX-6P-1; used on beads in pull-downs and in solution in the ELISA; also called PRD
T2 sequence (looked up): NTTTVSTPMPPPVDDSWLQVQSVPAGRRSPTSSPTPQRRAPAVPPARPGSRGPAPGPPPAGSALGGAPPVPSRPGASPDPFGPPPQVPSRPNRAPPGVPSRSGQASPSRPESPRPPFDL

Sequence of His-tagged mouse Endophilin A1 SH3 domain (Q62420 290-349): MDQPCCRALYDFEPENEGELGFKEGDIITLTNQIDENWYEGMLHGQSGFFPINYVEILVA

B3: GST-Dyn1xA 746-798 (domain or fragment, rat, UniProt P21575 746-798, looked up)
chain: NTTTVSTPMPPPVDDSWLQVQSVPAGRRSPTSSPTPQRRAPAVPPARPGSRGP
notes: Dynamin 1, rat, N746 to P798 of the PRR, common to splice variants xA and xB; also called phosphobox-1 peptide
- fold weaker affinity than xA_(746–864) [1]: 9 fold

Binder: B5
- stoichiometry N [3]: 1

Binder: B6
- Kd [4]: 44 nM

Second part, the binder after the results:

- fold difference in affinity from xA_(746–864) [1]: < 2 fold
- fold higher affinity than xA_(746–798) [1]: 5 fold
B1: GST-Dyn1xA 806-864 (domain or fragment, rat, UniProt P21575 806-864, looked up)
chain: GSALGGAPPVPSRPGASPDPFGPPPQVPSRPNRAPPGVPSRSGQASPSRPESPRPPFDL
notes: Dynamin 1 splice variant xA, rat, G806 to L864

- binding result [2]: binds
B2: Dyn1xA 806-864 (GST tag removed) (domain or fragment, rat, UniProt P21575 806-864, looked up)
chain: GSALGGAPPVPSRPGASPDPFGPPPQVPSRPNRAPPGVPSRSGQASPSRPESPRPPFDL
modifications: also: 15N-labelled (13C/15N for assignment)
notes: Dynamin 1 splice variant xA, rat, G806 to L864; source: E. coli JM109, GST tag proteolytically cleaved, purified by gel filtration

- binding result [2]: binds
B4: Dyn1xA 746-798 (GST tag removed) (domain or fragment, rat, UniProt P21575 746-798, looked up)
chain: NTTTVSTPMPPPVDDSWLQVQSVPAGRRSPTSSPTPQRRAPAVPPARPGSRGP
modifications: also: 15N-labelled (13C/15N for assignment)
notes: Dynamin 1, rat, N746 to P798 of the PRR; source: E. coli JM109, GST tag proteolytically cleaved, purified by gel filtration
